Experimental data from article PMC3448610, “Characterization of Molecular Determinants of the Conformational Stability of Macrophage Migration Inhibitory Factor: Leucine 46 Hydrophobic Pocket” (PLoS ONE, 2012).

Target: the molecule itself
Assay: AUC; sedimentation velocity, 50,000 rpm, 20°C, PBS 1X pH 7.4, protein 5-50 µM (15 µM in Figure 3); c(s) analysis with SEDFIT; oligomeric state of the protein with itself

Protein	stoichiometry N
L46A human Macrophage Migration Inhibitory Factor (natural protein, UniProt P14174 1-115, looked up, initiator methionine cleaved, measured mass 12303 g/mol; numbers count on: the mature protein starting at Pro-1 (without the initiator methionine); No tag is named; also called L46A huMIF; L46A MIF; source: more than 95% pure) MPMFIVNTNVPRASVPDGFLSELTQQLAQATGKPPQYIAVHVVPDQAMAFGGSSEPCALCSLHSIGKIGGAQNRSYSKLLCGLLAERLRISPDRVYINYYDMNAANVGWNNSTFA	3
L46F human Macrophage Migration Inhibitory Factor (natural protein, UniProt P14174 1-115, looked up, initiator methionine cleaved, measured mass 12379 g/mol; numbers count on: the mature protein starting at Pro-1 (without the initiator methionine); No tag is named; also called L46F huMIF; L46F MIF; source: more than 95% pure) MPMFIVNTNVPRASVPDGFLSELTQQLAQATGKPPQYIAVHVVPDQFMAFGGSSEPCALCSLHSIGKIGGAQNRSYSKLLCGLLAERLRISPDRVYINYYDMNAANVGWNNSTFA	3
L46G human Macrophage Migration Inhibitory Factor (natural protein, UniProt P14174 1-115, looked up, initiator methionine cleaved, measured mass 12289 g/mol; numbers count on: the mature protein starting at Pro-1 (without the initiator methionine); No tag is named; also called L46G huMIF; L46G MIF; source: more than 95% pure) MPMFIVNTNVPRASVPDGFLSELTQQLAQATGKPPQYIAVHVVPDQGMAFGGSSEPCALCSLHSIGKIGGAQNRSYSKLLCGLLAERLRISPDRVYINYYDMNAANVGWNNSTFA	3
